Results taken from US20190367626A1.
Changes are numbered by the printed parent chain.

B1: HC1LC3 (antibody, human IgG1, kappa, V domains shown)
VH: QVQLVQSGAEVKKPGATVKISCKVSGYIFTNNDMNWVQQAPGKGLEWMGGIDPGDGRTKYNEKFKGRVTITADESTSTAYMELSSLRSEDTAVYYCGRGGYEFGIDYWGQGTLVTVSS
VL: DIVMTQSPDSLAVSLGERATINCKSSQSLLNSGNQKNSLAWYQQRPGHPPKLLLYGASTRESGVPDRFSGSGSGTDFTLTISSLQAEDVAVYYCQNDHSFPLTFGGGTKVEIKR
B2: HC2LC3 (antibody, human IgG1, kappa, V domains shown)
VH: QVQLVQSGAEVKKPGASVKVSCKASGYIFTNNDMNWVRQAPGQGLEWMGGIDPGDGRTKYNEKFKGRVTMTRDTSTNTVYMELSSLTSEDTAVYFCGRGGYEFGIDYWGQGTTVTVSS
VL: B1 VL
B3: HC4LC3 (antibody, human IgG1, kappa, V domains shown)
VH: B2 VH with Q6E, A24V, Q43E, R72E, N77D, V79A, T87R, F95Y
VL: B1 VL
B4: HC3LC3 (antibody, human IgG1, kappa, V domains shown)
VH: QVQLVQSGAEVKKPGSSVKVSCKSSGYIFTNNDMNWVRQAPGQGLDWMGGIDPGDGRTKYNEKFKGRVTISADIFSNTAYMELNSLTSEDTAVYFCGRGGYEFGIDYWGQGTTVTVSS
VL: B1 VL
B5: HC0LC0 (antibody, human IgG1, kappa, V domains shown)
VH: QVQLQQSGPELVKPGASVKISCKASGYIFTNNDMNWVKQRPGQGLEWIGGIDPGDGRTKYNEKFKGKATLTADKFSNTVYMQLSSLTSENSAVYFCGRGGYEFGIDYWGQGTSVTVSS
VL: DIVMTQSPSSLSVSAGEKVTMSCKSSQSLLNSGNQKNSLAWYQQKPGRPPTLLISGASTRESGVPDRFTGSGSGTDFTLTISSVQAEDLAVYYCQNDHSFPLTFGAGTKLELKR

Biological target: TRAILshort (UniProt P50591)
Sequence (P50591 other isoform, or with tags, fused parts or gaps): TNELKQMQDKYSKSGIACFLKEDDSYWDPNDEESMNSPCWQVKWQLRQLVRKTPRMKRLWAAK
Experiment: SPR

| Binder | Kd |
| --- | --- |
| B1 | 10 pM |
| B2 | 3.8 pM |
| B3 | 31 pM |
| B4 | 4.5 pM |
| B5 | 3 pM |
